Results as given in US20100247515A1 (DOMANTIS, published 2010).

T1: TNFR1 on MRC-5 fibroblasts (UniProt P19438 30-455, limits assumed)
T1 sequence (looked up): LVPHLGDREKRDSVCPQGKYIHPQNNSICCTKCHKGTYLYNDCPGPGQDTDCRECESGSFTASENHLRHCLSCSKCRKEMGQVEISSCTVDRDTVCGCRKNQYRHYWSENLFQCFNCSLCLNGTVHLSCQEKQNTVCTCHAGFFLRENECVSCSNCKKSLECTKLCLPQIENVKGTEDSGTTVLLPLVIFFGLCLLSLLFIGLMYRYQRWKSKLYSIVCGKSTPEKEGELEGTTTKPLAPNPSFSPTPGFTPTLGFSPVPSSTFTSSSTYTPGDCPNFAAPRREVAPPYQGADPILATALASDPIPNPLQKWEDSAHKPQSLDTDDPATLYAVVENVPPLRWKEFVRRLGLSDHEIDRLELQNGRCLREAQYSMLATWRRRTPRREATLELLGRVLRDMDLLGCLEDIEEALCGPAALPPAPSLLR


Molecular target: T1, TNFR1 on MRC-5 fibroblasts
Experiment: cell-based or functional assay

Row | ND50, MRC-5 cell-based assay | Binder
1 | 2.28 nM | DOM1h-131-203 (other) VH: EVQLWESGGGLVQPGGSLRLSCAASGFTFAHETMVWVRQAPGKGLEWVSHIPPDGQDPFYADSVKGRFTISRDNSKNTLYLQMNSLRAEDTAVYYCALLPKRGPWIDYWGQGTLVTVSS
2 | 1.89 nM | DOM1h-131-204 (other) VH: EVQLSESGGGLVQPGGSLRLSCAASGFTFAHETMVWVRQAPGKGLEWVSHIPPDGQDPFYADSVKGRFTISRDNSKNTLYLQMNSLRAEDTAVYYCALLPNRGPWFDYWGQGTLVTVSS
